This data set is described as follows: yeast display, Sf9 membrane polyspecificity reagent, FACS + sequencing; frameworks hold sequencing errors. Put shortly: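 A nanobody's polyreactivity label depends on the gate it was sorted from. Yeast display cells were stained with 10% biotinylated, detergent-solubilized Sf9 membrane reagent for 1 hour at 4 °C, enriched on streptavidin microbeads and sorted by FACS. The low and high (top ~1%) gates were set on anti-HA fluorescence for expression and streptavidin fluorescence for reagent binding.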
On to “QVQLVESGGGLVQAGGSLRLSCAASGSIIAYYGMGWYRQAPGKESELVAAITSDASTYYADSVKWRFTISRDNAKKTDYLQMNSLKPVDTAVYYCYAYSYYYVYGYDMGYWGQGTQVTVSS”, for which the “polyreactivity (PSR sort gate)” value was “low polyreactivity”.

As to “QVQLVESGGGLVQAGGSLRLSCAASGSIICVNAMGWYRQATGKERELVAAISSTGGSTYYADSVKGRFTISRDNAKNTVYLQMNSLKPEDTAVYYCNTDYSKSIGDGYAGFDYWGQGTQVTVSS”, the “polyreactivity (PSR sort gate)” value is “low polyreactivity”.

In the case of “QVQLVESGGGLVQAGGSLRLSCAASGSIIDQYVMGWYRQAPGKERELVADISIRGGSTYYADSVKGRFTISRDNAKNTVYFQMNSLKPEDTAVYYCNADEWWGYPWEEDDYWGQGTQVTVSS”, the “polyreactivity (PSR sort gate)” value is on record as “low polyreactivity”.

Turning to “QVQLVESGGGLVQAGGSLRLSCAASGSIIGDNTKGWYRQAPGKERELVAAISWRGGSTYYADSVKGRFTISLDNAKNTVFLQMNSLKPEDTAVYYCIGGPGGYDYWGQGSQVTVSS”, the “polyreactivity (PSR sort gate)” value is “low polyreactivity”.

Take “QVQLVESGGGLVQAGGSLRLSCAASGSIIGGNAMGWYRQAPGKERELVAAIRSGGRTNYADSVKGRFTISRDNAKNTVYLQMNSLKPEDTAVYYCAADYYLGGGYWGQGTQVTVSS”: the “polyreactivity (PSR sort gate)” value is on record as “low polyreactivity”.

Turning to “QVQLVESGGGLVQAGGSLRLSCAASGSIIGRYTMGWYRQAPGKERELVAAINRSGGSTSYADSVKGRFTISRDNAKNTVYLQMNSLKPEDTAVYYCNRARSVPQFYGTYGFGYDYWGQGTQVTVSS”, the “polyreactivity (PSR sort gate)” value is “low polyreactivity”.

In the case of “QVQLVESGGGLVQAGGSLRLSCAASGSIIGVNAMGWYRQAPGKERELVAAISSTGGSTYYADSVKGRFTLSRDNAKNTVYLQMNSLKPEDTAVYSCNTDYSKSIGDGYAGFDYWGQGTQVTVSS”, the “polyreactivity (PSR sort gate)” value is given as “low polyreactivity”.

Take “QVQLVESGGGLVQAGGSLRLSCAASGSIIGYNTMGWYRQAPGKERELVAAISYSSGSTHYADSVKGRFTISRDNAKNTVYLQMNSLKPEDTAVYYCNTVRRWSFGYWGQGTQVTVSS”: the “polyreactivity (PSR sort gate)” value was “low polyreactivity”.

Turning to “QVQLVESGGGLVQAGGSLRLSCAASGSIIGYYAMGWYRQAPGKECEFVAAITRSGARTYYADSLKGRFTISRDNAKNTVYLQMNSLKPEDTAVYYCAAGAYYRYTIEYDYWGQGTQVTVSS”, the “polyreactivity (PSR sort gate)” value is recorded as “high polyreactivity”.

“QVQLVESGGGLVQAGGSLRLSCAASGSIIKAYAMGWYREAAGKERELVATITRSGVSTYYADSVNGRFTISRDNAKNTVYLQMKSLKPEDTAVYYCNRTGYVRFYITQQRGYFRYDYWGQGTQVTVSS”: the “polyreactivity (PSR sort gate)” value was “low polyreactivity”.

In the case of “QVQLVESGGGLVQAGGSLRLSCAASGSIIKPYDMGWYRQAPGKERELVAAIRSSGGRTNYADSVKGRFTISRDNAKNTVYLQMNSLKPEDTAVYYCAAGYVSYWYYRYDYWGQGTQVTVSS”, the “polyreactivity (PSR sort gate)” value is on record as “high polyreactivity”.

“QVQLVESGGGLVQAGGSLRLSCAASGSIIKRNAMGWSIQAPGKERELVASISSGGTYYADSVKGRFTISRDNAKNTVYLQMNSLKPEDSAVYYCATDRGVIYRGISGYIHYDYWGQGTQVTGSS”: the “polyreactivity (PSR sort gate)” value is listed as “low polyreactivity”.

On to “QVQLVESGGGLVQAGGSLRLSCAASGSIILPNTMGWYRQAPGKERELVASISWNGGRTYYADSVKGRFTISRDNAKNTVYLQMNSLKPEDTAVYYCNADFRYPRVRYDYWGQGTQVTVSS”, for which the “polyreactivity (PSR sort gate)” value is on record as “low polyreactivity”.

On to “QVQLVESGGGLVQAGGSLRLSCAASGSIILQNAMGWYRQAPGKERELVAAITNGGSTNYADSVKGRFTISRDNAKNTVYLQMNSLKPEDTAVYYCAAYPLYTGSYDRGGYWGQGTQVTVSS”, for which the “polyreactivity (PSR sort gate)” value is “low polyreactivity”.

As for “QVQLVESGGGLVQAGGSLRLSCAASGSIINRYAMGWYRQARGKERELVAAITQSGGRTYYADSVKGRFTISRDNAKNTVYLQMNSLKPEDTAVYYCAKAGWPGSYIYYRFRVGYDSWGQGTQVTVSS”, the “polyreactivity (PSR sort gate)” value was “high polyreactivity”.

As for “QVQLVESGGGLVQAGGSLRLSCAASGSIIQGYAMGWYRQAPGKERELVAVITTSGGSTYYADSVKGRFTISRDNAKNTVYLQMNSLKPEDTAVYYCAVGLLVYSRTYIGQAYFRYNYWGQGTQVTVSS”, the “polyreactivity (PSR sort gate)” value is on record as “high polyreactivity”.

As for “QVQLVESGGGLVQAGGSLRLSCAASGSIIQGYAMGWYRQEPGKERELVAAITGDGTTNYADSVKGRFTISRDNAKNNVYLQMNSLKPEDTAVYYCSATGLFNKFHGYGYLGQGTQVTVSS”, the “polyreactivity (PSR sort gate)” value is listed as “low polyreactivity”.

In the case of “QVQLVESGGGLVQAGGSLRLSCAASGSIIQGYVMGWYRQAPGKERELDAAISNSGSSTYYADSVKGRFTISRDNAKNTVYLQMNSLKPEDTAVYYCAVLRSYRGSKYGYWGQGTQVTVSS”, the “polyreactivity (PSR sort gate)” value is given as “high polyreactivity”.

As for “QVQLVESGGGLVQAGGSLRLSCAASGSIIRTYAMGWYRQAPGKERELVAAISGSGSRTYYADSVKGRFTISRDNAKNTVYLQMNSLKPEDSAVYYCAADPGTPRYQFLWYGYWGQGTQVTVSS”, the “polyreactivity (PSR sort gate)” value is on record as “low polyreactivity”.

As to “QVQLVESGGGLVQAGGSLRLSCAASGSIIRTYVMGWYRQAPGKERELVAAITYSGGRTYYADSVKGRFTISRDNAKNTVYLQMNSLKPEDTAVYYCAARSPRPSAIYDYWGQGTQVTVSS”, the “polyreactivity (PSR sort gate)” value is “high polyreactivity”.

Regarding “QVQLVESGGGLVQAGGSLRLSCAASGSIISANAMGWYRQAPGKESELVAAITSGDSTKYADSVKGRFTISRDNAKNTVYLQMNSLKPEDTAVYYCAVDRGVYKNRDGEEYWGQGTQVTVSS”, the “polyreactivity (PSR sort gate)” value is given as “low polyreactivity”.

Take “QVQLVESGGGLVQAGGSLRLSCAASGSIISRTVMGWYRQAPGKEREFVATISRSGGITYYADSVKGRFTISRDNAKNTVYLQMNSLKPEDTAVYYCAAGKFVSFPSHYGYWGQGTQVTVSS”: the “polyreactivity (PSR sort gate)” value is given as “high polyreactivity”.

Take “QVQLVESGGGLVQAGGSLRLSCAASGSIISVYVMGWYRQAPGTERELVASITSGASTNYADSVKGRFTISRDNETNTVYLQMNSLKPEDTAVYYCAARDWYDGFYYWGQGTQVTVSS”: the “polyreactivity (PSR sort gate)” value is “low polyreactivity”.

Regarding “QVQLVESGGGLVQAGGSLRLSCAASGSIITINAMGWYRQAPGKERELVAAISKRGGSTYYADSVKGRFTISSDNGKHTVYLQLNSLKPEDTAFYYCNAREYIHWRGALGLFGSWGQGTQVNVSS”, the “polyreactivity (PSR sort gate)” value was “high polyreactivity”.

Take “QVQLVESGGGLVQAGGSLRLSCAASGSIITSYTMGWYRQAPGKERELVAAISRSGGSTYYADSVKGRFTISRDNAKNTVYLQMNSLKPEDTAVYYCAARQSKLRRETPNDYWGQGTQVTVSS”: the “polyreactivity (PSR sort gate)” value is recorded as “high polyreactivity”.

For the sequence “QVQLVESGGGLVQAGGSLRLSCAASGSIIYRYAMGWYRQAPGKEMELVAAISTAGSTNYADSVKGRFTISRDNAKNTVYLLMNCLKPEDTAVYYCAAKSYRGRTQRSYGYWGQGTQVSVSS”, the “polyreactivity (PSR sort gate)” value was “low polyreactivity”.

With “QVQLVESGGGLVQAGGSLRLSCAASGSILADYAMGWDRQAPGKERELVAGISSGGSTNYADSVKGRFTISRDNAKNTVYLQMNSLKPEDTAVYYCNADQDFLFIGYLFDYWGQGTQVTVSS”, the “polyreactivity (PSR sort gate)” value is reported as “low polyreactivity”.

Take “QVQLVESGGGLVQAGGSLRLSCAASGSILADYAMGWYRQAPGKERELVAGISSGGSTNYADSVKGRFTISRDNAKNTVYLQMNSLKPEDTAVYYCNADQDFLFIGYLFDYWGQGTQVTVSS”: the “polyreactivity (PSR sort gate)” value is reported as “low polyreactivity”.

For “QVQLVESGGGLVQAGGSLRLSCAASGSILAGYAMGWYRQAPGKERELVAAITTGGGSTYYADSVKGRFTISRDNAKNTVYLQMNSLKPEDTAVYYCAAYRKPGSWTWWVRGYGYWGQGTQVTVSS”, the “polyreactivity (PSR sort gate)” value was “low polyreactivity”.

For “QVQLVESGGGLVQAGGSLRLSCAASGSILARYAMGWYRQAPGKERELVAAISSRGGSTYYADSVKGRFTISRDNAKNTVYLQMNSLKPEDTAVYYCAAYVYLQVEYDYWGQGTQVTVSS”, the “polyreactivity (PSR sort gate)” value is “low polyreactivity”.
